Reference: PMC6966814, “Receptor kinase FERONIA regulates flowering time in Arabidopsis”

Tests used:
[1] = biological target: T1, GST-CCA1 (… CLOCK-ASSOCIATED1) (Arabidopsis thaliana, UniProt P92973 1-608); test: EMSA; 20 fmol probe, 5 ug protein; EMSA: 100 mM Tris-HCl pH 8.0, 5 mM DTT, 2.5 mM EDTA, 0.25% Triton X-100, 25% glycerin; competitor 15 min then probe 20 min; 4% native PAGE, 0.5x TBE; temperature not stated; details: protein: recombinant; label: FITC on strand 1 (S35; printed after its 3' end); blunt
T1 sequence (P92973 whole entry): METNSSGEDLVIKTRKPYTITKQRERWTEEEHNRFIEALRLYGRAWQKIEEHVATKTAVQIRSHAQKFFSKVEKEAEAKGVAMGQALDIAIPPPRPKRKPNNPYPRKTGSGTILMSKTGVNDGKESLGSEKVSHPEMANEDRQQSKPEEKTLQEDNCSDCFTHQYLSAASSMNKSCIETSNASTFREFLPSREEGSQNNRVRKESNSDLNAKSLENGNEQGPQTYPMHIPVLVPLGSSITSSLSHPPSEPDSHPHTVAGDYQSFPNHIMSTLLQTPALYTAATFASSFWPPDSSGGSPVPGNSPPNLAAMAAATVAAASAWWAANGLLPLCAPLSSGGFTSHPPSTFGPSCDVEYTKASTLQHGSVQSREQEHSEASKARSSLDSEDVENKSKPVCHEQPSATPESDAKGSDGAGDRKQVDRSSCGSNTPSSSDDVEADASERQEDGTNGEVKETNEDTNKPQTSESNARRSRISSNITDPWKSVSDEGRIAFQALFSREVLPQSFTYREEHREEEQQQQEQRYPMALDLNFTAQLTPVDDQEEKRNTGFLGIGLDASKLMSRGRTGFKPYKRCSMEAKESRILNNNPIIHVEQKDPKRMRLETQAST

[2] = biological target: T1, GST-CCA1 (… CLOCK-ASSOCIATED1); test: competition (EMSA); 100x unlabeled competitor vs FITC-pFER; EMSA: 100 mM Tris-HCl pH 8.0, 5 mM DTT, 2.5 mM EDTA, 0.25% Triton X-100, 25% glycerin; competitor 15 min then probe 20 min; 4% native PAGE, 0.5x TBE; temperature not stated; details: protein: recombinant; label: none; blunt
[3] = biological target: T1, GST-CCA1 (… CLOCK-ASSOCIATED1); test: competition (EMSA); 100x unlabeled competitor vs FITC-pFER; did not compete; EMSA: 100 mM Tris-HCl pH 8.0, 5 mM DTT, 2.5 mM EDTA, 0.25% Triton X-100, 25% glycerin; competitor 15 min then probe 20 min; 4% native PAGE, 0.5x TBE; temperature not stated; details: protein: recombinant; label: none; blunt

B1: pFER probe (EE element), FITC (dsDNA)
DNA 1: TCTCCCCCAAAATATCTCTGTCTTC
DNA 2: GAAGACAGAGATATTTTGGGGGAGA
binding result [1]: binds

B2: pFER competitor A (unlabeled WT) (dsDNA)
DNA 1: TCTCCCCCAAAATATCTCTGTCTTC
DNA 2: GAAGACAGAGATATTTTGGGGGAGA
binding result [2]: binds

B3: pFER-Mutant competitor B (AAATATCT to GGGGGGGG) (dsDNA)
DNA 1: TCTCCCCCAGGGGGGGGCTGTCTTC
DNA 2: GAAGACAGCCCCCCCCTGGGGGAGA
binding result [3]: no binding
